# Data taken from the supplement of paper PMC7877785.
# ± gives the uncertainty stated by the source.
# Assay: self-splicing fitness, log relative to wild type (ln ratio); higher = more splicing; Tetrahymena group I intron in knt gene, E. coli kanamycin selection, DiMSum; sequences stand for … in CUCUCU…GGAGGGAAAAGUUAUCAGGCAUGCACCUGGUAGCUAGUCUUUAAACCAAUAGAUUGCAUCGGUUUAAAAGGCAAGACCGUCAAAUUGCGGGAAAGGGGUCAACAGCCGUUCAGUACCAAGUCUCAGGGGAAACUUUGAGAUGGCCUUGCAAAGGGUAUGGUAAUAAGCUGACGGACAUGGUCCUAACCACGCAGCCAAGUCCUAAGUCAACAGAUCUUCUGUUGAUAUGGAUGCAGUUCACAGACUAAAUGUCGGUCGGGGAAGAUGUAUUCUUCUCAUAAGAUAUAGUCGGACCUCUCCUUAAUGGGAGCUAGCGGAUGAAGUGAUGCAACACUGGAGCCGCUGGGAACUAAUUUGUAUGCGAAAGUAUAUUGAUUAGUUUUGGAGUACUCGUGGUCG
# How it was run: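 Colonies from six replicate transformations of E. coli BL21(DE3) were pooled and amplicon-sequenced on an Illumina HiSeq 2500. The library placed an intron with all eight P1ex-region nucleotides randomised inside the knt kanamycin-resistance gene on pET-22b(+), and cells grew overnight at 37°C or 30°C on LB agar with or without 25 μg/mL kanamycin (plus 100 μg/mL carbenicillin, 50 μM IPTG, 0.2% rhamnose). Fitness is the DiMSum error-weighted combination of wild-type-normalised replicate fold changes, kanamycin versus none.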
Sequence,self-splicing fitness (ln) (30 °C),self-splicing fitness (ln) (37 °C)
AUUUAGCAAUAUUACGUAGA,-2.08 ± 0.15,-2.48 ± 0.23
AUUUAGCAAUAUUACGUCCA,-0.944 ± 0.15,-0.558 ± 0.27
AUUUAGCAAUAUUACGUCCG,-1.76 ± 0.18,-0.728 ± 0.22
AUUUAGCAAUAUUACGUCUG,-1.73 ± 0.11,-1.15 ± 0.11
AUUUAGCAAUAUUACGUGCA,-1.05 ± 0.11,-0.306 ± 0.16
AUUUAGCAAUAUUACGUUGC,-3.26 ± 0.41,
CAAAAGCAAUAUUACGAACG,0.409 ± 0.072,0.483 ± 0.095
CAAAAGCAAUAUUACGAAGC,-4.63 ± 0.36,-2.27 ± 0.21
CAAAAGCAAUAUUACGACAU,-2.345 ± 0.013,-1.34 ± 0.033
CAAAAGCAAUAUUACGACCU,-1.79 ± 0.095,-0.569 ± 0.084
CAAAAGCAAUAUUACGACUG,-0.738 ± 0.068,0.168 ± 0.099
CAAAAGCAAUAUUACGCAAG,-1.52 ± 0.12,0.0344 ± 0.12
CAAAAGCAAUAUUACGCAGU,-4.31 ± 0.24,-3.64 ± 0.27
CAAAAGCAAUAUUACGCCAU,-3.4 ± 0.2,-2.61 ± 0.23
CAAAAGCAAUAUUACGCCUU,-3.67 ± 0.17,-0.986 ± 0.12
CAAAAGCAAUAUUACGCGCC,-2.04 ± 0.17,-0.789 ± 0.19
CAAAAGCAAUAUUACGCGGA,-3.43 ± 0.25,-2.08 ± 0.17
CAAAAGCAAUAUUACGCGGC,-2.85 ± 0.21,-2.21 ± 0.28
CAAAAGCAAUAUUACGCUUC,-3.84 ± 0.33,-1.99 ± 0.24
CAAAAGCAAUAUUACGGCCC,-2.01 ± 0.31,-1.06 ± 0.3
CAAAAGCAAUAUUACGGCUU,-3.44 ± 0.11,-2.39 ± 0.11
CAAAAGCAAUAUUACGGUAU,-3.42 ± 0.15,-2.67 ± 0.15
CAAAAGCAAUAUUACGUAAA,-1.47 ± 0.092,-1.32 ± 0.11
CAAAAGCAAUAUUACGUAUU,-4.13 ± 0.18,-2.78 ± 0.15

Sequence,self-splicing fitness (ln) (30 °C),self-splicing fitness (ln) (37 °C)
CAAAAGCAAUAUUACGUGUU,-3.61 ± 0.13,-2.37 ± 0.13
CAAAAGCAAUAUUACGUUCA,-1.67 ± 0.11,-0.976 ± 0.1
CAAAAGCAAUAUUACGUUGU,-3.3 ± 0.11,-2.4 ± 0.14
CAAAAGCAAUAUUACGUUUG,-3.08 ± 0.14,-2.55 ± 0.18
CAACAGCAAUAUUACGAAUC,-3.47 ± 0.13,-2.41 ± 0.14
CAACAGCAAUAUUACGACCA,-1.66 ± 0.099,-0.585 ± 0.097
CAACAGCAAUAUUACGACGU,-0.776 ± 0.042,-0.12 ± 0.054
CAACAGCAAUAUUACGAGCC,-3.76 ± 0.46,-1.95 ± 0.29
CAACAGCAAUAUUACGAUAA,-2.08 ± 0.1,-1.67 ± 0.11
CAACAGCAAUAUUACGAUCU,-2.02 ± 0.13,-0.986 ± 0.12
CAACAGCAAUAUUACGAUGG,-0.426 ± 0.056,0.257 ± 0.075
CAACAGCAAUAUUACGGCCA,-2.55 ± 0.15,-1.59 ± 0.14
CAACAGCAAUAUUACGGCUC,-1.38 ± 0.078,-0.333 ± 0.098
CAACAGCAAUAUUACGGGGA,-2.24 ± 0.093,-2.14 ± 0.11
CAACAGCAAUAUUACGGGGU,-4.57 ± 0.23,-2.79 ± 0.15
CAACAGCAAUAUUACGGUAG,-0.633 ± 0.059,-0.746 ± 0.068
CAACAGCAAUAUUACGUCGC,-2.75 ± 0.17,-2.07 ± 0.18
CAACAGCAAUAUUACGUGCA,-2.72 ± 0.11,-1.57 ± 0.092
CAACAGCAAUAUUACGUUGG,-2.86 ± 0.096,-1.5 ± 0.095
CAACAGCAAUAUUACGUUUG,-3.3 ± 0.077,-2.11 ± 0.094
CAACAGCAAUAUUACGUUUU,-3.57 ± 0.11,-2.19 ± 0.11
CAAGAGCAAUAUUACGAAUC,-3.46 ± 0.41,-1.26 ± 0.38
CAAGAGCAAUAUUACGAGCC,-4.42 ± 0.34,-2.31 ± 0.32
CAAGAGCAAUAUUACGAUAG,-1.53 ± 0.11,-0.239 ± 0.13

Sequence,self-splicing fitness (ln) (30 °C),self-splicing fitness (ln) (37 °C)
CAAGAGCAAUAUUACGAUUG,-2.26 ± 0.13,-1.86 ± 0.15
CAAGAGCAAUAUUACGCAUA,-2.71 ± 0.31,-2.3 ± 0.37
CAAGAGCAAUAUUACGCGUU,-3.61 ± 0.22,-3.05 ± 0.25
CAAGAGCAAUAUUACGCUAC,-2.4 ± 0.26,-1.66 ± 0.38
CAAGAGCAAUAUUACGCUCA,-2.63 ± 0.17,-1.08 ± 0.2
CAAGAGCAAUAUUACGCUCG,-2.16 ± 0.44,-1.26 ± 0.41
CAAGAGCAAUAUUACGGAAG,-1.75 ± 0.13,-1.31 ± 0.19
CAAGAGCAAUAUUACGGAUC,-3.07 ± 0.18,-3.27 ± 0.27
CAAGAGCAAUAUUACGGGGG,-3.3 ± 0.21,-2.62 ± 0.2
CAAGAGCAAUAUUACGGUCU,-2.35 ± 0.16,-1.97 ± 0.22
CAAGAGCAAUAUUACGUAAC,,-2.94 ± 0.43
CAAGAGCAAUAUUACGUAUA,-4.95 ± 0.3,-1.92 ± 0.15
CAAGAGCAAUAUUACGUCAG,-3.25 ± 0.16,-0.429 ± 0.11
CAAGAGCAAUAUUACGUUCA,-2.46 ± 0.17,-2.09 ± 0.19
CAAGAGCAAUAUUACGUUGC,-3.28 ± 0.2,-2.38 ± 0.23
CAAGAGCAAUAUUACGUUGU,-5.35 ± 0.45,-2.26 ± 0.22
CAAGAGCAAUAUUACGUUUG,-2.75 ± 0.21,-2.37 ± 0.24
CAAUAGCAAUAUUACGAAGG,-1.86 ± 0.095,-0.211 ± 0.13
CAAUAGCAAUAUUACGAAUC,-2.66 ± 0.38,-0.0469 ± 0.27
CAAUAGCAAUAUUACGACCU,-3.2 ± 0.24,-0.203 ± 0.2
CAAUAGCAAUAUUACGACGC,-2.73 ± 0.19,-0.616 ± 0.17
CAAUAGCAAUAUUACGAGAC,-4.17 ± 0.36,-2.1 ± 0.27
CAAUAGCAAUAUUACGCACU,-2.14 ± 0.12,-1.82 ± 0.17
CAAUAGCAAUAUUACGCUAA,-3.58 ± 0.43,-2.05 ± 0.2

Sequence,self-splicing fitness (ln) (30 °C),self-splicing fitness (ln) (37 °C)
CAAUAGCAAUAUUACGGCUG,-0.286 ± 0.084,-0.379 ± 0.098
CAAUAGCAAUAUUACGGGAA,-3.21 ± 0.2,-1.94 ± 0.15
CAAUAGCAAUAUUACGGUAC,-3.25 ± 0.19,-2.08 ± 0.18
CAAUAGCAAUAUUACGGUGG,-0.89 ± 0.081,-0.133 ± 0.1
CAAUAGCAAUAUUACGUAGC,,-2.05 ± 0.3
CAAUAGCAAUAUUACGUAUA,-3.6 ± 0.22,-2.58 ± 0.19
CAAUAGCAAUAUUACGUCGA,-2.82 ± 0.21,-2.96 ± 0.28
CAAUAGCAAUAUUACGUCUU,-3.63 ± 0.14,-2.09 ± 0.13
CAAUAGCAAUAUUACGUUAU,-4.87 ± 0.34,-1.57 ± 0.18
CAAUAGCAAUAUUACGUUCU,-4.4 ± 0.43,
CAAUAGCAAUAUUACGUUUA,-3.6 ± 0.19,-2.13 ± 0.14
CACAAGCAAUAUUACGACGG,-0.279 ± 0.071,0.557 ± 0.083
CACAAGCAAUAUUACGAUCU,-2.56 ± 0.09,-2.85 ± 0.13
CACAAGCAAUAUUACGAUUC,-3.55 ± 0.16,-0.651 ± 0.11
CACAAGCAAUAUUACGCACA,-1.08 ± 0.087,-0.518 ± 0.098
CACAAGCAAUAUUACGCAGC,-3.48 ± 0.29,
CACAAGCAAUAUUACGCAUG,-3.79 ± 0.18,-2.52 ± 0.13
CACAAGCAAUAUUACGCCGU,-2.15 ± 0.23,-2.36 ± 0.26
CACAAGCAAUAUUACGCCUU,-3.72 ± 0.18,-1.34 ± 0.14
CACAAGCAAUAUUACGCGAU,-3.57 ± 0.15,-3.18 ± 0.19
CACAAGCAAUAUUACGCGUG,-2.76 ± 0.16,-2.24 ± 0.22
CACAAGCAAUAUUACGGCAG,-0.587 ± 0.051,-0.0731 ± 0.064
CACAAGCAAUAUUACGGCGC,-3.59 ± 0.17,-1.07 ± 0.12
CACAAGCAAUAUUACGGGGC,-3.54 ± 0.17,-2.54 ± 0.18
